The text below walks through data of the supplement of paper PMC9112550, “Optimization of the antimicrobial peptide Bac7 by deep mutational scanning” (BMC Biology, 2022).
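Further: peptides expressed intracellularly from a pBAD plasmid library in pooled LB shake-flask culture, induced with 0.3% L-arabinose, DNA abundance read by NGS, three biological replicates, DESeq2 with apeglm shrinkage.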

The subject of this data set is Escherichia coli TOP10. The data set can be described thus: shrunken log2 fold change of peptide-encoding DNA abundance (4.5 h post-induction vs induction); higher = less antimicrobial activity (less host growth inhibition). To be noted: time post-induction: 4.5 h; library: site-saturation at positions 5, 18, 19, 20.
In the case of RRIRCRPPRLPRPRPRPSGAPRP, the “shrunken log2 fold change” value stood at 0.176.

For RRIRFRPPRLPRPRPRPEHKPRP, the “shrunken log2 fold change” value is -0.0193.

RRIRMRPPRLPRPRPRPNSWPRP: the “shrunken log2 fold change” value is 0.122.

As to RRIRSRPPRLPRPRPRPPAHPRP, the “shrunken log2 fold change” value came to 0.303.

On to RRIRMRPPRLPRPRPRPYFAPRP, for which the “shrunken log2 fold change” value was -0.296.

RRIRVRPPRLPRPRPRPMSPPRP: the “shrunken log2 fold change” value was 0.0872.

Consider RRIRRRPPRLPRPRPRPPQFPRP, for which the “shrunken log2 fold change” value was found to be 0.864.

Regarding RRIRCRPPRLPRPRPRPGVMPRP, the “shrunken log2 fold change” value turned out to be 0.0691.

With RRIRERPPRLPRPRPRPSAVPRP, the “shrunken log2 fold change” value was -0.411.

Consider RRIRTRPPRLPRPRPRPHLMPRP, for which the “shrunken log2 fold change” value is -0.139.

As to RRIRQRPPRLPRPRPRPVTIPRP, the “shrunken log2 fold change” value was -0.0898.

Take RRIRKRPPRLPRPRPRPKHDPRP: the “shrunken log2 fold change” value was 0.133.

Regarding RRIRKRPPRLPRPRPRPAVYPRP, the “shrunken log2 fold change” value was -0.0285.

With RRIRDRPPRLPRPRPRPAYNPRP, the “shrunken log2 fold change” value was -0.764.

As for RRIRDRPPRLPRPRPRPVHKPRP, the “shrunken log2 fold change” value is -0.233.

As for RRIRNRPPRLPRPRPRPTYYPRP, the “shrunken log2 fold change” value is -0.325.

As for RRIRDRPPRLPRPRPRPQLVPRP, the “shrunken log2 fold change” value worked out at 0.0777.

As for RRIRDRPPRLPRPRPRPRAHPRP, the “shrunken log2 fold change” value came out at 0.38.

For RRIRTRPPRLPRPRPRPIVIPRP, the “shrunken log2 fold change” value is -0.054.

Turning to RRIRQRPPRLPRPRPRPKYQPRP, the “shrunken log2 fold change” value is -0.369.

Turning to RRIRFRPPRLPRPRPRPLFRPRP, the “shrunken log2 fold change” value is -0.372.

Take RRIRNRPPRLPRPRPRPGDIPRP: the “shrunken log2 fold change” value worked out at 0.0338.

RRIRMRPPRLPRPRPRPQIYPRP: the “shrunken log2 fold change” value is -0.464.

On to RRIRQRPPRLPRPRPRPTRDPRP, for which the “shrunken log2 fold change” value is -0.271.

With RRIRHRPPRLPRPRPRPFSGPRP, the “shrunken log2 fold change” value was 0.136.

As to RRIRRRPPRLPRPRPRPEGWPRP, the “shrunken log2 fold change” value is 3.17.

In the case of RRIRMRPPRLPRPRPRPPVMPRP, the “shrunken log2 fold change” value is 0.616.

For RRIRKRPPRLPRPRPRPTGEPRP, the “shrunken log2 fold change” value came to 0.954.

RRIRHRPPRLPRPRPRPAHPPRP: the “shrunken log2 fold change” value is 0.175.

For RRIRNRPPRLPRPRPRPPLGPRP, the “shrunken log2 fold change” value was determined as 0.331.

As for RRIRHRPPRLPRPRPRPFSQPRP, the “shrunken log2 fold change” value is -0.302.

Take RRIRYRPPRLPRPRPRPHNCPRP: the “shrunken log2 fold change” value is -0.381.

As for RRIRFRPPRLPRPRPRPKRMPRP, the “shrunken log2 fold change” value was determined as 0.133.

With RRIRLRPPRLPRPRPRPPVAPRP, the “shrunken log2 fold change” value was 0.387.

Consider RRIRPRPPRLPRPRPRPSPAPRP, for which the “shrunken log2 fold change” value stood at 0.209.

With RRIRRRPPRLPRPRPRPHAGPRP, the “shrunken log2 fold change” value came out at 0.425.

Regarding RRIRRRPPRLPRPRPRPFWNPRP, the “shrunken log2 fold change” value worked out at 0.0866.

For RRIRARPPRLPRPRPRPSCCPRP, the “shrunken log2 fold change” value was 0.207.

As to RRIRCRPPRLPRPRPRPQSCPRP, the “shrunken log2 fold change” value came out at 0.0547.

Regarding RRIRRRPPRLPRPRPRPLSTPRP, the “shrunken log2 fold change” value is 0.021.

Consider RRIRRRPPRLPRPRPRPLINPRP, for which the “shrunken log2 fold change” value is -0.0185.

RRIRSRPPRLPRPRPRPSVWPRP: the “shrunken log2 fold change” value turned out to be 0.0903.

RRIRLRPPRLPRPRPRPSPIPRP: the “shrunken log2 fold change” value was -0.0508.

Take RRIRDRPPRLPRPRPRPWGCPRP: the “shrunken log2 fold change” value is 0.166.

Take RRIRFRPPRLPRPRPRPPLRPRP: the “shrunken log2 fold change” value was 0.373.

Consider RRIRDRPPRLPRPRPRPMATPRP, for which the “shrunken log2 fold change” value stood at 0.415.

Take RRIRERPPRLPRPRPRPFVGPRP: the “shrunken log2 fold change” value is -0.143.

For RRIRERPPRLPRPRPRPNPLPRP, the “shrunken log2 fold change” value is -0.0696.

For RRIRDRPPRLPRPRPRPGGSPRP, the “shrunken log2 fold change” value is 0.25.

On to RRIRQRPPRLPRPRPRPFVSPRP, for which the “shrunken log2 fold change” value was -0.216.

In the case of RRIRERPPRLPRPRPRPEMFPRP, the “shrunken log2 fold change” value is 0.232.

Turning to RRIRTRPPRLPRPRPRPHSQPRP, the “shrunken log2 fold change” value was -0.101.

As to RRIRCRPPRLPRPRPRPKDWPRP, the “shrunken log2 fold change” value was determined as 0.378.

Turning to RRIRVRPPRLPRPRPRPLGHPRP, the “shrunken log2 fold change” value came to 0.0376.

For RRIRSRPPRLPRPRPRPVYMPRP, the “shrunken log2 fold change” value is -0.461.

For RRIRIRPPRLPRPRPRPCSKPRP, the “shrunken log2 fold change” value is -0.267.

Take RRIRMRPPRLPRPRPRPWFNPRP: the “shrunken log2 fold change” value was -0.243.

As to RRIRFRPPRLPRPRPRPEYLPRP, the “shrunken log2 fold change” value is -0.203.

On to RRIRTRPPRLPRPRPRPTWQPRP, for which the “shrunken log2 fold change” value was 0.149.

Turning to RRIRTRPPRLPRPRPRPNEYPRP, the “shrunken log2 fold change” value is -0.22.

With RRIRWRPPRLPRPRPRPYKLPRP, the “shrunken log2 fold change” value was -0.327.

Regarding RRIRNRPPRLPRPRPRPIPKPRP, the “shrunken log2 fold change” value is -0.0467.
